Test results as given in patent publication US12679888B2, “IL-18 binding protein (IL-18BP) and antibodies for treating inflammatory diseases” (AB2 BIO SA, priority 2015, dated 2026).
Several values for one entry are separate records, joined by “and”; a condition that tells them apart may be missing. Equal entries are not always repeated. Where two headings read alike, the source gives them in different places.

How the values were obtained:
[1] = tested on: collagen-induced arthritis murine model; experiment: Collagen-induced arthritis murine model and dose extrapolation; type: in vivo, mouse
Protocol: (§1) No validated animal model has been described for this condition. In the collagen-induced arthritis murine model the active dose for r-hIL-18BP administered intraperitoneally (i.p.) was determined to be 1 mg/Kg body weight. […] Altogether the expected pharmacologically active dose for a “humanized mice” treated by s.c. route with r-hIL-18BP is round 4.85 mg/kg. […] Although the guidance was initially written for extrapolating animal doses to healthy volunteers, its principles can be applied also to patients. […] Those doses will be likely also ineffective in AoSD patients considering that blood levels of IL-18 in AoSD are higher than those reported in the two above mentioned conditions.

[2] = tested on: RA and Pso patients; experiment: Previous human studies with r-hIL-18BP in RA and Pso patients; type: in vivo; conditions: 20 mg 3 times a week
Protocol: as §1

[3] = tested on: C57BL/6J mice; experiment: Four-day exacerbation/tobacco smoke mouse model (COPD exacerbation); type: in vivo
Protocol: The aim of the study was to determine the effect of IL-18BP, administered at three dose levels, by the sub-cutaneous route, on Polyinosinic:polycytidylic acid-induced exacerbation of tobacco-smoke induced pulmonary inflammation, in C57BL/6J mice. High level of dexamethasone, dosed orally, was included in the study as a reference agent.
Mice received either vehicle (PBS) or IL-18BP. IL-18BP was given subcutaneously to 3 groups of animals respectively at 1, 3 or 10 mg/kg 2 h prior to the initial tobacco smoke exposure from Day 1 to Day 4. Mice received orally either vehicle or dexamethasone (10 mg/kg) 1 h prior to each twice daily exposure. Mice received by intranasal administration either the vehicle or Polyinosinic:polycytidylic acid (2 mg/kg) 2 h prior to the initial air or tobacco smoke exposure on Day 4 to induce lung inflammation exacerbation. Tobacco smoke exposure was performed during the morning and afternoon as follow: Day 1 for 15 min, Day 2 for 25 min, Day 3 for 30 min and Day 4 for 30 min.
Following the above treatments, animals were terminally anaesthetised on Day 5. After that, a blood sample was taken via the sub-clavian artery (plasma) and the animals were bronchoalveloar lavaged with 3×0.4 ml of PBS for further cellular and cytokine/mediator analysis. Bronchoalveolar lavage supernatants were stored at −80° C. for cytokine/mediator analysis. Cells recovered from the BALF were counted using the Sysmex cell counter.

[4] = molecular target: T1, IL-18 (Homo sapiens, UniProt Q14116); experiment: KD calculation by titration of IL-18 with IL-18BP, free IL-18 ELISA (IL-18BP capture); type: binding; design: purchased; conditions: read-out: KD between human IL-18 and IL-18BP by titration
T1 sequence (Q14116 37-193): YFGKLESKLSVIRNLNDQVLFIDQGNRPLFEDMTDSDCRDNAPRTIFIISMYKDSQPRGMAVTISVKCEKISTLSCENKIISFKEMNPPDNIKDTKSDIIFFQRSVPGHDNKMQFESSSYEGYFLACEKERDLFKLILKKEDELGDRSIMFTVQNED
Protocol: (§2) Microplate wells are coated with an appropriate volume phosphate buffer saline solution containing recombinant human IL-18BP (r-hIL-18BP) as shown in SEQ ID NO 7, and less than 30% of N-terminal and/or C-terminal deletion variants of IL-18BP. A description of the r-hIL-18BP is provided in section 6.6.1 below. A description of the purification protocol is provided in section 6.6.2. Plates are incubated for a period of time at 4° C. and then stabilized with a blocking buffer containing bovine serum albumin or other appropriate blocking agents. Once the reaction is finished, microplates are sealed and stored at 4° C. until used for detection of free IL-18. Microplates can also be dried in a stabilizing solution allowing storage at room temperature and then be reconstituted by hydration when needed for assay.
As an example, for a final reaction volume of 100 μl, dispense first 80 μl of biotin/antibody conjugate. Samples or biological fluids containing free IL-18 are tested with the IL-18BP coated microplates. After that, 20 μl sample volume containing biological fluid or standard is dispensed per microplate well. […] The resulting reactions are then monitored with a microplate reader at an appropriate nanometer wavelength for absorbance or fluorescence of the produced reagent. […]
• KD was calculated based on the following formula: KD=[free IL-18]×[free IL-18BP]/[IL-18/IL-18BP complex] […]

[5] = molecular target: T1, IL-18; experiment: Titration of free IL-18 as a function of IL-18BP level (free IL-18 ELISA); type: binding; design: purchased; conditions: 400 pg/mL IL-18 in PBS, 5% BSA
Protocol: as §2, with “Microplates can also be dried in a stabilizing solution allowing storage at room temperature and then be reconstituted by hydration when needed for assay.” left out
As an example, for a final reaction volume of 100 μl, dispense first 80 μl of biotin/antibody conjugate. […] The resulting reactions are then monitored with a microplate reader at an appropriate nanometer wavelength for absorbance or fluorescence of the produced reagent.
A constant quantity of recombinant IL-18 was titrated as a function of different and well-defined quantities of IL-18BP in order to understand when free IL-18 is not any more detectable. A PBS solution of 400 pg/mL IL-18 supplemented by 5% BSA was spiked with defined quantities of IL-18BP ranging from 0 to 10′000 pg/mL. The molar ratios were calculated according to the respective molecular weight of IL-18 and IL-18BP. […]

[6] = 3 and 10 mg/kg s.c., compared to positive control dexamethasone

B1: IL-18BP: soluble glycoprotein of 164 amino acids produced from a Chinese Hamster Ovary cell line; isoform a, SEQ ID NO 7 (protein, listed as Homo sapiens)
chain: TPVSQTTTAATASVRSTKDPCPSQPPVFPAAKQCPALEVTWPEVEVPLNGTLSLSCVACSRFPNFSILYWLGNGSFIEHLPGRLWEGSTSRERGSTGTQLCKALVLEQLTPALHSTNFSCVLVDPEQVVQRHVVLAQLWAGLRATLPPTQEALPSSHSSPQQQG
modifications: CHO glycosylation; MISC_FEATURE - Human interleukin-18 binding protein isoform a
With B1 the “effective s.c. dose in mice” value ([1]; adjusted for s.c. bioavailability) was 1.82 mg/kg, the active dose ([1]; administered intraperitoneally (i.p.)) was 1 mg/Kg body weight and the human equivalent dose ([1]; allometric murine conversion factor of 12.3) was 0.39 mg/kg. For the same molecule, the human equivalent dose ([1]; for a 70 Kg individual) was 27.3 mg, the “expected pharmacologically active dose for a humanized mice” value ([1]; s.c. route, corrected for Kd difference) was roughly 4.85 mg/kg and the clinical efficacy [2] was “no efficacy”. For the same molecule, the “exacerbated inflammation inhibition (total cell infiltration)” value ([3]; 10 mg/kg s.c.) was “clear and statistically relevant efficacy”, the “neutrophil infiltration in the lung airway space” value (“neutrophil infiltration” for short) ([3]; 10 mg/kg s.c.) was “best statistical efficacy” and the “neutrophil infiltration” value [3, 6] was “statistically valuable efficacy”. The “total cell infiltration in the lung airway space” value [3, 6] was “statistically valuable efficacy”, the weight loss ([3]; 3 and 10 mg/kg s.c., large majority of mice) was 6-7% and the tolerability ([3]; IL-18BP s.c.) was “well tolerated”. The weight loss mitigation ([3]; IL-18BP s.c., Students t-test and ANOVA) was “mitigated by IL-18BP even though both Students t-test and ANOVA statistical analyses were not significant”, the “neutrophil infiltration” value ([3]; IL-18BP s.c., day 5) was “inhibited” and the “total cell infiltration in the lung airway space” value ([3]; IL-18BP s.c., day 5) was “significant mitigation of total cell infiltration”. The Kd ([4]; PBS supplemented by 5% BSA diluent) was 0.035 nM, the Kd ([4]; Serum diluent) was 0.05 nM and ~0.05 nM and the “IL-18BP concentration at which 400 pg/mL IL-18 detection is near background detection level” value [5] was no less than 6000 pg/mL.
